Source: patent US20240317871A1 (IMMUNOMIC THERAPEUTICS, published 2024)
Where a chain is given by its changes, count along the chain named.

T1: murine HVEM (murine, UniProt Q80WM9 39-206, limits assumed)
T1 construct: also called Mouse
T1 sequence (looked up): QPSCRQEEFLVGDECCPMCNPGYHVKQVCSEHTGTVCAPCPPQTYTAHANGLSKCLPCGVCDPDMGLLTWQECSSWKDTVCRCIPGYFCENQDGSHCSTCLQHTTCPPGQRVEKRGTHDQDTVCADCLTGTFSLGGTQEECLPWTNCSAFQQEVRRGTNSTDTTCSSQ

T2: human HVEM (human, UniProt Q92956 39-202, limits assumed)
T2 sequence (looked up): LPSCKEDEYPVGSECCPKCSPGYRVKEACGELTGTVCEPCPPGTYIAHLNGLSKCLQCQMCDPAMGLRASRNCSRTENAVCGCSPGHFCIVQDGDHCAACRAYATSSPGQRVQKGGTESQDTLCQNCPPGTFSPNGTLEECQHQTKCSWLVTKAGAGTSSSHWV

T3: cynomolgus monkey HVEM (cynomolgus monkey, UniProt A0A2K5W0R1 39-203)
T3 sequence: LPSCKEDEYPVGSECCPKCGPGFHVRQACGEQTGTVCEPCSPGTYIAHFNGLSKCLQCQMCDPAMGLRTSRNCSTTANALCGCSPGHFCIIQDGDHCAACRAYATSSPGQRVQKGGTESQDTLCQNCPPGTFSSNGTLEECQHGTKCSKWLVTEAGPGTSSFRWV

T4: His-tagged human HVEM (human, UniProt Q92956 39-202, limits assumed)
T4 construct: Analyte of the BLI assay, 200 nM in PBS; not shown: His tag
T4 sequence (looked up): T2 sequence (looked up)

B1: Ab_049 (H5S19-25A24A) (antibody, V domains shown)
VH: QVQLQQSGAELMKPGASVKISCKATGYTFSSYWIEWVKQRPGHGLEWIGEILPGSGSTNYNEKFKGKATFTADTSSNTAYMQLSSLTSEDSAVYYCARYPRWGKIDYWGQGTTLTVSS
VL: DIVMTQAAFSNPVTLGTSASISCRSSKSLLHSNGITYLYWYLQKPGQSPQLLIYQMSNLASGVPDRFSSSGSGTDFTLRISRVEAEDVGVYYCAQNLELPYTFGGGTKLEIK
notes: also called Ab_49
B2: Ab_086 (H5S20-56A25A) (antibody, V domains shown)
VH: EVKLVESGGGLVKPGGSLKLSCAASGFTFSSYGMSWVRQTPEKRLEWVATISGGGSYTFYPDSVKGRFTISRDNAKNNLYLQVSSLRSEDTALYYCIYDGSYWGQGTLVTVSA
VL: not shown
notes: also called Ab_86
B3: Ab_059 (H5S19-3B10B) (antibody, V domains shown)
VH: QIQLVQSGPELKKPGETVKISCKASGYTFTNFGVNWVKQAPGKGLKWMGWINTYTGEPTYADDFKGRFAFSLETSASTAYLRINNLKNEDTATYFCARSFYKNYAFWGQGTILTVSS
VL: QIVLTQSPAIMSASPGEKVTLTCSASSSVDSSYLFWYQQKPGSSPKLWIYSTSNLASGVPARFSGSGSGTSYSLTISSMEAEDAASYFCHQWSSYPWTFGGGTILEI
notes: also called Ab_59
B4: Ab_014 (H5S14-15A12A) (antibody, V domains shown)
VH: QVQLKQSGPGLVQPSQSLSITCTVSGFSLTSYGVHWVRQSPGKGLEWLGVIWSGGSTDYNAAFICRLSISKDSSKSQVFFKMNSLQADDTAMYYCARNLGGSWVDYWGQGTSVTVSS
VL: ETTVTQSPASLSVATGEKVTIRCITSTDIDDDMNWYQQKPGEPPKLLISEGNTLRPGVPSRFSSSGYGTDFVFTIENTLSEDVADYYCLQSDNMPYTFGGGTKLEIK
notes: also called Ab_14
B5: Ab_007 (H5S14-6A6A) (antibody, V domains shown)
VH: EVKLVESGGGLVQPGGSLRLSCATSGFTFTDYYMSWVRQTPGKALEWLGFIRNQANAYTTEYSVSVKGRFTISRDNSQSILYLQMNTLRVEDSATYYCARVPDYWGQGTTLTVSS
VL: DIQMTQSPASQSASLGESVTITCLASQTIGTWLAWYQQKPGKSPQLLIYAATSLADGVPSRFSGSGSGTKFSFKISSLQAEDFVSYYCQQLHSTPYTFGGGTKLEIK
notes: also called Ab_7
B6: Ab_003 (H5S14-3A3A) (antibody, V domains shown)
VH: QIQLVQSGPELKKPGETVKISCKASGYTFTNYGVNWVKQAPGKDLKWMGWINTYTGEPTYADDFKGRFAFSLETSASTAYLQINNLKNEDMATYFCTSRSWVLWGQGTLVTVSA
VL: QIVLTQSPAIMSASLGEEITLTCSASSSVSYMQWYQQKSGTSPKLLIYSTSNLASGVPSRFSGSGSGTFYSLTISSVEAEDAADYYCHQWSSYPTFGGGTELEI
notes: also called Ab_3
B7: Ab_018 (H5S14-21A19A) (antibody, V domains shown)
VH: QVQLQQPGSELVRPGASVKLSCKASGYTFTSYWMHWVKQRPGQGLEWIGNIYPGSGSTNYDEKFKSKATLTVDTSSSTAYMQLSSLTSEDSAVYYCTIYDGYYWGQGTLVTVSA
VL: DIQMTQSPASLSVSVGETVTITCRASENIYSNLAWYQQKQGKSPQLLVYAATNLADGVPSRFSGSGSGTQYSLKINSLQSEDFGSYYCQHFWGTPRTFGGGTKLEIK
notes: the values of that row are written under this molecule; also called Ab_18; Ab_018 and Ab_019
B8: Ab_020 (H5S14-22A20A) (antibody, V domains shown)
VH: EVQLQQSGPELVKPGASVKMSCKASGYTFTSYVMHWVKQKPGQGLEWIGYINPYNDGTKYNEKFKGKATLTSDKSSSTAYMELSSLTSEDSAVYYCARGIITTVIEPILYAMDYWGQGTSVTVSS
VL: NIVLTQSPASLAVSLGQRATISCRASESVDSYGNSFMHWYQQKPGQPPKLLIYLASNLESGVPARFSGSGSRTDFTLTIDPVEADDAATYYCQQNNEDPYTFGGGTKLEIK
notes: also called Ab_20
B9: Ab_021 (H5S14-29A20A) (antibody, V domains shown)
VH: B8 VH with I105V
VL: B8 VL
notes: also called Ab_21
B10: Ab_084 (H5S20-51A40A) (antibody, V domains shown)
VH: QVQLKQSGPGLVQPSQSLSITCTVSGFSLTSYGVHWVRQSPGKGLEWLGVIWRGGSTDYNAAFMSRLSITKDNSKSQVFFKMNSLQADDTAIYYCAKNRGYGEGYYAMDYWGQGTSVTVSS
VL: DIVMTQSQKFMSTSVGDRVSVTCKASQNVGTNVAWYQQKPGQSPKALIYSASYRYSGVPDRFTGSGSGTDFTLTISNVQSEDLAEYFCQQYNSYPLTFGAGTKLELK
notes: also called Ab_84
B11: Ab_023 (H5S14-27A23A) (antibody, V domains shown)
VH: EVKLDETGGGLVQPGRPMKLSCVASGFTFSDYWMNWVRQSPEKGLEWVAQIRNKPYNYETYYSDSVKGRFTISRDDSKSSVYLQMNNLRAEDMGIYYCTWGNYWGQGTTLTVSS
VL: DIKMTQSPSSMYASLGERVTITCKASQDINSYLSWFQQKPGKSPKTLIYRANRLVDGVPSRFSGSGSGQDYSLTISSLEYEDMGIYYCLQYDEFPWTFGGGTKLEIK
notes: also called Ab_23
B12: Ab_056 (H5S19-11A9B) (antibody, V domains shown)
VH: DVQLQESGPGLVNPSQSLSLTCTVTGYSITSDYAWNWIRQFPGNKLEWMGYISYSGNTGYNPSLKSRISITRDTSKNQFFLQLNSVTSEDTATYYCARWGLRIDYWGQGTTLTVSS
VL: B11 VL with R18S, Y80F, W96F, G100S, I106M
notes: also called Ab_56
B13: Ab_002 (H5S14-2A2A) (antibody, V domains shown)
VH: QVQLQQPGAELVKPGTSVKMSCKASGYTFTSYWMHWVKQRPGQGLEWIGDIYPGSDSTNYNEKFKSKATLTVDTSSSTAYMQLSSLTSEDSAVYYCARSGYYGSYLDYWGQGTTLTVSS
VL: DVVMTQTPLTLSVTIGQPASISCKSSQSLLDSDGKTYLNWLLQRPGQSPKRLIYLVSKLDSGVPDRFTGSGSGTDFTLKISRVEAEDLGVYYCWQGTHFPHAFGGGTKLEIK
notes: also called Ab_2
B14: Ab_015 (H5S14-16A13A) (antibody, V domains shown)
VH: EVQLVESGGGLVKPGGSLKLSCAASGFTFSDYYMYWVRQTPEKRLEWVATISDGGSYTYYPDSVKGRFTISRDNAKNNLYLQMSSLKSEDTAMYYCARDGNYYAMDYWGQGTSVTVSS
VL: DVLMTQTPLSLPVSLGDQASISCRSSQSIVHSNGNTYLEWYLQKPGQSPKLLIYKVSNRFSGVPDRFSGSGSGTDFTLKISRVEAEDLGVYYCFQGSHVPWTFGGGTKLEIK
notes: also called Ab_15
B15: Ab_057 (H5S19-5A7A) (antibody, V domains shown)
VH: DVKLVESGGGLVKPGGSLKLSCAASGFTFSSYTMSWVRQTPEKRLEWVATISSGGSYTYYPDSVKGRFTISRDNAKNTLYLQMSSLKSEDTAMYYCTRGDDYGFDYWGQGTTLTVSS
VL: B14 VL
notes: also called Ab_57
B16: Ab_016 (H5S14-17A15A) (antibody, V domains shown)
VH: QVQLQQSGAELVRPGTSVKMSCKAAGYTFTNYWIGWVKQRPGHGLEWIGDIYPGGGYTNYNEKFKGKATLTADTSSSTAYMQLSSLTSEDSAIYYCARNGNSLDYWGQGTTLTVSS
VL: SIVMTQTPKFLLVSAGDRVTITCKASQSVSNDVAWYQQKPGQSPKLLIYYESNRYTGVPDRFTGSGYGTDFTFTISTVQAEDLAVYFCQQDYSSPWTFGGGTKLEIK
notes: also called Ab_16
B17: Ab_017 (H5S14-18A16A) (antibody, V domains shown)
VH: EVQLVETGGGLVQPKGSLKLSCAASGFTFNTNAMNWVRQAPGKGLEWVARIRSKSNNYATYYADSVKDRFTISRDDSQSMLYLQMNNLKTEDTAMYYCVREGGYGNYPYFDYWGQGTTLTVSS
VL: B16 VL with E51A
notes: also called Ab_17
B18: Ab_022 (H5S14-23A21A) (antibody, V domains shown)
VH: LVKTGASVKISCKASGYSFTGYYMHWVKQSHGKSLEWIGYISCYNGATSYNQKFKGKATFTVDTSSSTAYMQFNSLTSEDSAVYYCARTYYYGSSYGAMDYWGQGTSVTVSS
VL: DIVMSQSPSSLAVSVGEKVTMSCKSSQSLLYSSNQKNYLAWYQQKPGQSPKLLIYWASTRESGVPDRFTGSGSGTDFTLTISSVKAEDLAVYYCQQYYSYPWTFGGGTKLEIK
notes: also called Ab_22
B19: Ab_044 (H5S15-30A26A) (antibody, V domains shown)
VH: QVQLQQPGAELVKPGAPVKLSCKASGYTFTSYWMNWVKQRPGRGLEWIGRIDPSDSETHYNQKFKDKATLTVDKSSSTAYIQLSSLTSEDSAVYYCAREYYGNHFDYWGQGTTLTVSS
VL: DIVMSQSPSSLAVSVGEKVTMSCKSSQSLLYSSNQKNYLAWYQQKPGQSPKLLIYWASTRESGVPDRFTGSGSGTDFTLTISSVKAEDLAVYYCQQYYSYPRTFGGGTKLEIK
notes: also called Ab_44

Molecular target: T1, murine HVEM
Test: ELISA

Row | Binder | ELISA signal
1 | B1 | 0.044
2 | B2 | 0.044
3 | B3 | 0.043
4 | B4 | 0.049
5 | B5 | 0.042
6 | B6 | 0.051
7 | B7 | 0.043
8 | B8 | 0.043
9 | B9 | 0.042
10 | B10 | 0.043
11 | B11 | 0.042
12 | B12 | 0.043
13 | B13 | 0.043
14 | B14 | 0.042
15 | B15 | 0.045
16 | B16 | 0.042
17 | B17 | 0.044

Molecular target: T2, human HVEM
Test: ELISA

Row | Binder | ELISA signal
18 | B3 | 0.462
19 | B4 | 0.05
20 | B5 | 2.56
21 | B18 | 0.157
22 | B8 | 0.049
23 | B9 | 0.046
24 | B11 | 0.045
25 | B13 | 2.8
26 | B14 | 0.045
27 | B19 | 2.87
28 | B16 | 0.047
29 | B17 | 0.051

Molecular target: T3, cynomolgus monkey HVEM
Test: ELISA

Row | Binder | ELISA signal
30 | B1 | 0.065
31 | B2 | 0.065
32 | B4 | 0.064
33 | B5 | 0.739
34 | B6 | 2.29
35 | B18 | 0.165
36 | B7 | 0.059
37 | B8 | 0.064
38 | B9 | 0.061
39 | B10 | 0.061
40 | B11 | 0.057
41 | B12 | 0.06
42 | B13 | 1.98
43 | B14 | 0.058
44 | B15 | 1.06
45 | B16 | 0.061
46 | B17 | 0.06

Molecular target: T4, His-tagged human HVEM
Test: BLI OctetRed96, mAb captured, 200 nM His-HVEM
Experimental: Binding of antibodies to HVEM may also be determined by bio-layer interferometry (BLI) on an OctetRed96@ system (Sartorius). (See http://www.fortebio.com/bli_technology.html for general description of a BLI assay.) For this experiment, murine anti-human HVEM antibodies were captured from culture supernatant using anti-mouse IgG Fc capture and immobilized to dip and read biosensors. Sensors were then dipped into a solution of 200 nM His-tagged human HVEM in phosphate-buffered saline (PBS). Probes were dipped into PBS assay buffer and the dissociation rate (koff) was measured. The association rate (kₒₙ) and affinity (KD) were determined by curve fitting analysis.

Row | Binder | Kd | koff | kon
47 | B19 | 1.97 nM | 0.00605 s⁻¹ | 3.08e+06 M⁻¹ s⁻¹
